The text below walks through data of paper PMC9942873 (Immunity, 2023).

What all share (assay): ELISA
What all share (conditions): both partners purified
(In general: An ELISA detects its analyte on a solid surface through an enzyme-linked reagent.)

Assay [1] deals with T1, Pfs48/45 D3 (Plasmodium falciparum 3D7, UniProt Q8I6T1).
Assay [2] concerns the target T2, recombinant full-length Pfs48/45 (Plasmodium falciparum 3D7, UniProt Q8I6T1).
For assay [3], the target named is T3, Pfs48/45 D2-3 (Plasmodium falciparum 3D7, UniProt Q8I6T1).
T3 sequence (Q8I6T1 184-428): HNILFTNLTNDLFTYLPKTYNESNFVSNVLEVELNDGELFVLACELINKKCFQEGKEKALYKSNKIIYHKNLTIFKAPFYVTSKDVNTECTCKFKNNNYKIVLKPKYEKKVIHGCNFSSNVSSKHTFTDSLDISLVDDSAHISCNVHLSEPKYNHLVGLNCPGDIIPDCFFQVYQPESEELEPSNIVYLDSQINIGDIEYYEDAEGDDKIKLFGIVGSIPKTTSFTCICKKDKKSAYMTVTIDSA
In assay [4] the target is T1, Pfs48/45 D3. This is another data set of the same source.
For assay [5], the target named is T2, recombinant full-length Pfs48/45. The source holds these as a separate data set.
Another assay deals with Pfs48/45 D1-2 (Plasmodium falciparum 3D7, UniProt Q8I6T1).
Sequence of Pfs48/45 D1-2 (Q8I6T1 28-289): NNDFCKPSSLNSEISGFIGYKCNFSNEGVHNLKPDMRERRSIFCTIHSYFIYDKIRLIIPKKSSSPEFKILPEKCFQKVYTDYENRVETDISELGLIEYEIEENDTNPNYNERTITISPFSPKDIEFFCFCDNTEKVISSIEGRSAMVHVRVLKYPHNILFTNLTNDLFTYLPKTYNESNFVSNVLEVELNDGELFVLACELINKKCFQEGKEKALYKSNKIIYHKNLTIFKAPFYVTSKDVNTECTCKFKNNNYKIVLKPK
In assay [6] the target is T3, Pfs48/45 D2-3. This is another data set of the same source.

T2 sequence (Q8I6T1 28-428): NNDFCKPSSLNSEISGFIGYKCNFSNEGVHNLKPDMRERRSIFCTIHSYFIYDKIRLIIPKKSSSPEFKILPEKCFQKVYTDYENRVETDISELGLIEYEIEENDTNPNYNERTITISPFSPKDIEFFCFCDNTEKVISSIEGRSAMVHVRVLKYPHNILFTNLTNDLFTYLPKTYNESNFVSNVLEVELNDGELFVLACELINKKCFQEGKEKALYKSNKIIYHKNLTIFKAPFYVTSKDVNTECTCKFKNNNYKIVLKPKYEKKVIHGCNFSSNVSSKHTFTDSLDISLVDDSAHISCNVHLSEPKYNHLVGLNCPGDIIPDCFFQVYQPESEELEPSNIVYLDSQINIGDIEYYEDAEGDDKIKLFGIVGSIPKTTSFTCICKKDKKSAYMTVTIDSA
T1 sequence (Q8I6T1 287-428): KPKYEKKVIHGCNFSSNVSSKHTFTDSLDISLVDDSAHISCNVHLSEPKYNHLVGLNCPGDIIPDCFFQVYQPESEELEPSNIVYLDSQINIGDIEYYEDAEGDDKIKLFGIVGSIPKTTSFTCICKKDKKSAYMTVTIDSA

B1: RUPA-89 (antibody, V domains shown)
VH: DVYLLESGGGLVQPGGSLRLSCAASGFTFSNDAMSWVRQAPGKGLEWVSGILASAPRTYYADSVKGRFIISRDNSKNTLYLQMNSLRVEDTAIYYCAKEGILRPFDPWGQGTLVTVSS
VL: QSALTQPASMSGSPGQSITISCTGTSSDVGGFKYVSWYQHHPDKAPKLIIYEVNQRPSGVSNRFSGSKSGNTASLTISGLQAEDEADYYCSSYTSITYHHVFGTGTKVTVL
notes: human IgG1; source: recombinant human IgG1, 293T (Protein A purified) or GenScript
Turning to B1, the binding result (in the assay with Pfs48/45 D3 [1]; in assay [2]; in the assay with Pfs48/45 D2-3 [3]) was “binds” each time.

B2: RUPA-117 (antibody, V domains shown)
VH: QLQLQESGPGLVKPSETLSLTCTVSGGSISRSPYYWGWIRQPPGKGLEWFGSVYNNGSTYYNPSLKSRVTISVDTSKNQFSLKLSSVTAADTALYYCARHGGSTGMKVVVIAPPDYWGQGTLVTVSS
VL: DIQMTQSPATLSASVGDRVTITCRASQSISIWLAWYQQKPGEAPKLLIYKASSLQSGVPSRFSGSASGTKFSLTISSLQPDDFATFYCQQYHSYPYTFGQGTKLEIK
notes: as for B1
As for B2, the binding result (with Pfs48/45 D3 [1]; in assay [2]; with Pfs48/45 D2-3 [3]) was “binds” each time.

B3: RUPA-43 (antibody, V domains shown)
VH: QVLLVQSGAEVKKPGASVKVSCKASGYTFLYHDISWVRQATGQGLEWMGWMNPNTGDTGYAQRFQGRVTMTRDMSISTAYLELGSLSSEDTAVYYCARGVGSYHGSGGWLDPWGQGTLVIVSS
VL: QSVLTQPPSVSETPGQRVTISCSGTSSNIGINTVNWYQQLPGTAPKLLIHNDNQRPSGVPDRFAGSKSGSSAALAISGLQSEDEADYYCGTWDDSLKRRVFGGGTKLTVL
notes: as for B1
B3: the binding result with Pfs48/45 D3 [4] is “no binding (tested: 10 ug/ml)”; in assay [5], “binds”; in the assay with Pfs48/45 D1-2 it was “binds”; with Pfs48/45 D2-3 [6] it was “binds”.

B4: RUPA-106 (antibody, V domains shown)
VH: EVELLESGGGLVQPGGSLRISCAASGFIFNTYAMSWVRQAPGKGLEWVSAISGSGRSTYYADSVKGRFTISRDNSNNTLYLQMNSLRAEDTAVYYCAKDTHSNILYYLFDYWGQGTLVTVSS
VL: EIVLTQSPATLSLSPGERGTLSCRASQSVSSSYLGWYQQKPGQAPRLLIYGASSRATGIPDRFSGSGSGTDFTLTISRLEPEDFAVYYCHQYGISPATFGQGTKVEIK
notes: as for B1
For the molecule B4, the binding result (with Pfs48/45 D3 [1]; in assay [2]; with Pfs48/45 D2-3 [3]) was “binds” throughout.

B5: RUPA-140 (antibody, V domains shown)
VH: EVQLLESGGGLVQPGGSLRLSCVASGFSFSNFAMNWVRQAPGKGLEWVSAISGSGGSTYYIDSVKGRFSISRDTSKNTLYLQMNSLRAEDTAVYYCAKVGGRSIFGEATDYWGQGSLVTVSS
VL: DIQMTQSPSSLSASVGDRVTITCRASQSINKYLNWYQQKPGRAPKLLIQVASSLQSGVPSRFSGSGSGTDFTLTISSLQPEDFATYYCQQTYTLPLIFGGGTKVEIK
notes: source: recombinant human IgG1, 293T (Protein A purified) or GenScript
With B5, the binding result (with Pfs48/45 D3 [1]; in assay [2]; with Pfs48/45 D2-3 [3]) was “binds” throughout.

B6: RUPA-100 (antibody, V domains shown)
VH: QVQLVESGGGVVQPGRSLRLSCAASGFSFSHYGMHWVRQAPGKGLEWVAVISYDGNYKYYGDSVKGRFTISRDNFKNTLYLQMNSLRPEDTAVYYCAKGKAHSCVSTSCYTDFWGQGTLVTVPS
VL: SYELTQPPSVSVSPGQTARITCSGDALPKKYAYWYQQKSGQAPVLVIYEDSKRPSGIPERFSGSSSGTMATLTISGAQVEDEGDYYCYSTDSSYNHRGVFGGGTKLTVL
notes: as for B1
With B6, the binding result (in the assay with Pfs48/45 D3 [1]; in assay [2]; with Pfs48/45 D2-3 [3]) was “binds” each time.
